Data published in US20240043505A1 (UNIVERSITY OF PITTSBURGH OF THE COMMONWEALTH SYSTEM OF …, published 2024).

B1: Nb68 (VHH)
VHH: QVQLVESGGGLVQAGGSLRLSCAASGGTLRSYNMGWFRQGPGKEREFVAAISWTGLGTYYGDSVKGRFTISRDVIKNTLYLQMDSLKPEDTAIYYCAADSSTSRLHSAGSDYRYWGQGTQVTVSS
B2: Nb37 (VHH)
VHH: QVQLVESGGGLVQTGGSLRLSCAASGRTFSNYVMGWFRQAPGKEREFVSSIEWNSENTFYANSVKGRFTISRDNAKNTVYLQMNSLKAEDTAVYYCAADRGSSYYYTRASEYTYWGQGTQVTVSS
B3: Nb6 (VHH)
VHH: HVQLVESGGGLVQAGGSLRLSCAASGRTFSTHATGWFRQAPGKEREFLATSVWLDDISRDSTYYAESVKGRFSISRDNAKDTVYLQMNSLKPEDTAVYYCAVKQRVGPGIMSAPTYDYWGQGTQVTVSS
B4: Nb24 (VHH)
VHH: QVQLVESGGGLVQAGGSLRLTCAASGGTFSTSTMDMGWFRQAPGKEREFVALDSWNGGRTYYADSVKGRFTISRDNAKNTLYLQMNSLKPEDTAVYYCAADTYSNYEKDDSWGYWGQGTQVTVSS
B5: Nb28 (VHH)
VHH: HVQLVESGGGLVQAGGSLRLSCAASGRTFSTSTMDMGWFRQAPGKEREFVGADSWNDGRTYYADSVKGRFTISRDNAKNTLYLQMNNLKPEDTAVYYCAAETYSLYEKSDSWGYWGQGTQVTVSS
B6: Nb29 (VHH)
VHH: HVQLVESGGGLVQAGGSLRLTCAASGGTFSTSTMDMGWFRQAPGKEREFVAVDSWNDGRAYYADSVKGRFTISRDNAKNTLYLQMNSLKPEDTAVYYCAAETYSNYEKAYSWGYWGQGTQVTVSS
B7: Nb26 (VHH)
VHH: HVQLVESGGGLVQAGGSLRLTCAASGRTFSISTMDMGWFRQAPGKEREFVAADAWNDGRTYYADSVKGRFTISRDNAKNTLYLQMNSLKPEDTAVYYCTADTYSNYKKDDSWGYWGQGTQVTVSS
B8: Nb32 (VHH)
VHH: DVQLVESGGGLVQAGGSLRLSCAASGRTFSSDTMDMGWFRQAPGKEREFVALHSWNGGKTYYADSVKGRFTISRDNAKNTLYLQMNNLKPEDTAVYYCAAETYTLYEKDSSWGYWGQGTQVTVSS
B9: Nb2 (VHH)
VHH: QVQLVESGGGLVQAGGSLRLSCAASGRTFSIYNMGWFRQAPGKEREFVIHMNWSNGNTATAASVKDRFTISRDNAKNTVYLQMSSLKPEDTAVYYCHATTNDYDYWGQGTQVTVSS
B10: Nb15 (VHH)
VHH: EVQLVESGGGLVAAGGSLRLSCVPSTNIFSANAMGWYRQAPGKQRELVASITSGGNTNYADSVKGRFTISRDNADTVILQMNSLKPEDTAVYYCKGTAYSTTYNSVRDYWGQGTQVTVSS
B11: Nb39 (VHH)
VHH: QVQLVESGGGLVQAGGSLRLSCAASGRTFRFSAIDWYRQAPGQQREFVASISTSGRISYGHFVKGRFTISRDNAKNTMYLQMNSLKPEDTAVYYCHLAQPDVFGGGDYWGQGTQVTVSS
B12: Nb42 (VHH)
VHH: HVQLVESGGGLVQAGESLRLSCVASGSIFSINAMGWFRQAPGKQRELVASISNIGTTIYAESVKGRFTISRDNAKNTADLQMNSLKPEDTAIYYCNLRQGCSYNGCDEYWGQGTQVTVSS
B13: Nb58 (VHH)
VHH: QVQLVESGGGLVQAGGSLRLSCAASGRDFSSTVMGWFRQAPGKERELVAWMTVTYDITYYADSVKGRFTISKDNAKNTVYLQANSLKPDDTAVYYCASGALRVGSFSPDYWGQGTQVTVSS
B14: Nb55 (VHH)
VHH: DVQLVESGGGLVQAGGSLRLSCAASGRTFGSTMAWFRQAPGKERDFVAAITWSADRISYADSVKGRFTISRDNDKNIVHLQMNSLKPEDTAVYVCAARASSNTYDDPRSFAFWGQGTQVTVSS
B15: Nb76 (VHH)
VHH: DVQLVESGGGLVQAGGSLRLSCAVSGRTFSISTMGWFRQAPGKERLFVAGITWHDGSTNYADSVKGRFTISRDNAKNTVYLQMNSLKPEDTALYYCAARKSINYVQEYDYWGRGTQVTVSS
B16: Nb74 (VHH)
VHH: HVQLVESGGGLVQAGGSLRLSCAASGRTFSSHAMAWFRQAPGKEREFVAGISWSGPYYVDSVKGRFTISTDNAKNTVYLQMNSLTPEDTAVYYCASSRGPNLYPHIGDVEYWGQGTQVTVSS
B17: Nb64 (VHH)
VHH: QVQLVESGGGLVQAGGSLRLSCAVSGRTFSIAGMGWFRQAPGKDREFLGGITWNDGTTWYADSVKGRFTISRDNAKNMLSLRMNSLKPEDTAVYYCAAGPRLGSTPRAYDYWGQGTQVTVSS
B18: Nb63 (VHH)
VHH: QVQLVESGGGLVQAGGSLRLSCVASGSGFEPNAMGWYRQAPGKQRELVAGITSGGNANYADSVKGRFTISRDNVKNTVYLQMNSLKPEDTAVYYCQGPACSGSGCRNYWGQGTQVTVSS
B19: Nb66 (VHH)
VHH: HVQLVESGGGLVQAGGSLRLSCAASGRTFSVNSIAWFRQAPGKEREFVATINWSGGDIYYADSVKGRFTISRDNGKNTVYLQMNSLKPTDTAVYYCAAARFYGRSIAQDYDSWGQGTQVTVSS
B20: Nb60 (VHH)
VHH: HVQLVESGGGLVQAGDSLRLSCAASERTNINYAMGWFRQAPGKERDFVAAIGWNGSIIKYAESVKGRFTISRDDAKNTVSLQMNSLKPEDTAVYYCAARIGSIANLQPREYEFAYWGQGTQVTVSS
B21: Nb18 (VHH)
VHH: DVQLVESGGGLVQAGGSLRLSCAASGRTFSSYNVGWFRQAPGKEREFVAFIRWSGTSTYYADSVKGRFTISRDNAKNTVYLQMNSLKPEDTAVYYCAATSRTMIHTSQAMPINWDYWGQGTQVTVSS
B22: Nb100 (VHH)
VHH: EVQLVESGGGLVQAGGSLRLSCAASGLTFSSYNMGWFRQAPGKEREFVAFIRWSGTSTYYADSVKGRFTISRDTAKNTVYLQMNSLKLEDTAVYYCAATSRTMIHTSQTMRINWDYWGQGTQVTVSS
B23: Nb84 (VHH)
VHH: DVQLVESGGGLVQAGGSLRLSCAASGRTFSSYSMGWFRQAPGKEREFVAFIRWSGTSTYYADSVKGRFTISRDNAKNTVYLQMNSLKPDDTAVYYCAASSRTMNTISQTMRINWDYWGQGTQVTVSS
B24: Nb16 (VHH)
VHH: DVQLVESGGGLVQAGESLRLSCAASGDMFSSNAMAWYRQAPGKQRELVASITSGGNTNYADSVKGRFTISRDNAKNTVYLQMDSLKPEDTAVYYCNGVAYDYSWGRPRNFWGQGTQVTVSS
B25: Nb80 (VHH)
VHH: HVQLVESGGGLVQPGGSLRLSCAASGNFFLINVMSWWRQAPGNEHELHELVATITSDGRTNYGDAVQGRFTISRDNAKNTLYLQMNSLKPEDTAVYYCYAQGQGNREYWGQGTQVTVSS
B26: Nb48 (VHH)
VHH: HVQLVESGGGLVQAGGSLRLSCAASGSIFRHYNMGWFRQAPGKEREFVSAISWTNIGTYYADSVKGRFSISRDNNRNTAYLEMNSLKPEDTAVYYCAADRSEFGSRLYSDENEYDYWGQGTQVTVSS
B27: Nb62 (VHH)
VHH: HVQLVESGGGLVQAGGSLRLTCAASGRTFSSSTMDMGWFRQAPGKEREFVAVDAWNDGRTYYADSVKGRFTISRDNAKNTLYLQMNSLKPGDTAVYYCHAVDVSVGGDYWGQGTQVTVSS
B28: Nb3 (VHH)
VHH: HVQLVESGGGLVQAGGSLRLSCVASGSGFEPNAMGWYRQAPGKQRELVAGITSGGNTNYADSVKGRFTISRDNVKNTVYLQMNSLKPEDTAVYYCNAVAPRINPRGSPTNYWGQGTQVTVSS
B29: Nb4 (VHH)
VHH: QVQLVESGGGLVQAGGSLRLSCVASGSGFEPNAMGWYRQAPGKQRELVAGITSGGNANYADSVKGRFTISRDNVKNTVYLQMNSLKPEDTAVYYCNAVGPRFNPRGSPTNYWGQGTQVTVSS
B30: Nb46 (VHH)
VHH: QVQLVESGGGLVQAGGSLRLSCAVSGSTLGINAIGWYRQPPGKQRELVASISSLGTTLYAESVKGRFAISRDNAKNTGYLQMNSLKPDDTAVYYCNMRTPYMRDYWGQGTQVTVSS
B31: Nb41 (VHH)
VHH: DVQLVESGGGLVQAGGSLRLSCAASGFTFSNYVMYWGRQAPGKGREWVSGIDSDGSDTAYASSVKGRFTISRDNAKKTLYLQMNDLKPEDTALYYCVKSKDRYGSPWTRSEFEDYWGQGTQVTVSS
B32: Nb11 (VHH)
VHH: HVQLVESGGGLVQAGGSLRLSCAVSGASAERVGWFRRAPGKEREFVAAIGANGGSTNYLDSVKGRFTISRDNAKNTVYLQMNSLKPQDTAVYYCAARNLETFDYTYWGRGTQVTVSS
B33: Nb78 (VHH)
VHH: QVQLVESGGGLVQAGGSLRLSCAISGASANRVGWFRRAPGKEREFVAAIGASGGMTNYLDSVKGRFTISRDNAKNTVYLQMNSLKPQDTAVYYCAARNIETAEYTYWGQGTQVTVSS
B34: Nb43 (VHH)
VHH: EVQLVESGGGLVQAGGSLRLTCAASGRTFSSSTMDMGWFRQAPGKEREFVAVDAWNDGRTYYADSVKGRFTISRDNAKNTLYLQMNSLKPEDTAIYYCNLRQGCSYNGCDEYWGQGTQVTVSS

Target: SARS-CoV-2 spike receptor-binding domain (RBD) (SARS-CoV-2, UniProt P0DTC2 319-541)
Assay: indirect ELISA on coated RBD ('ELISA affinity')

Binder | IC50
B1 | 6.11 nM
B2 | 0.38 nM
B3 | 0.57 nM
B4 | 0.77 nM
B5 | 0.92 nM
B6 | 1.25 nM
B7 | 0.92 nM
B8 | 2.17 nM
B9 | 4.82 nM
B10 | 0.47 nM
B11 | 1.49 nM
B12 | 0.66 nM
B13 | 2.68 nM
B14 | 2.24 nM
B15 | 0.17 nM
B16 | 67.1 nM
B17 | 0.45 nM

Binder | IC50
B18 | 0.84 nM
B19 | 0.33 nM
B20 | 138 nM
B21 | 0.57 nM
B22 | 1.04 nM
B23 | 0.53 nM
B24 | 0.37 nM
B25 | 5.09 nM
B26 | 1.08 nM
B27 | 85.7 nM
B28 | 0.48 nM
B29 | 0.67 nM
B30 | 25.9 nM
B31 | 0.2 nM
B32 | 0.39 nM
B33 | 0.61 nM
B34 | 664 nM
